Drawing on patent publication US20200055923A1 (HEXAL, published 2020), this text covers Kd for 1 molecule.

The assay concerns the target T1, VEGF165 (human VEGF-A), immobilized (human, UniProt P15692-4 27-191).
T1 construct: Immobilized on the Biacore chip; also called vascular endothelial growth factor A
Kind of assay: SPR (Biacore), VEGF165 immobilized. A general note: SPR reads the build-up and loss of mass on a sensor chip optically.

T1 sequence (P15692 other isoform, or with tags, fused parts or gaps limits assumed): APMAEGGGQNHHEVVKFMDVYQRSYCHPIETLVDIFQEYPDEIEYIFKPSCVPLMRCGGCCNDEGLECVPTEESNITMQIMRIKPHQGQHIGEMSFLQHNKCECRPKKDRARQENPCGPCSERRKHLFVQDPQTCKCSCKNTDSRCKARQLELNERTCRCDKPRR
Method: To study the binding of bevacizumab to VEGF, a surface plasmon resonance (SPR) assay using Biacore™ was carried out. The interaction between bevacizumab and its target, immobilized VEGF₁₆₅, is monitored in real time. Analysis of the association and dissociation of the binding partners allows the retrieval of the kinetic parameters kₐ (association rate constant) and kd (dissociation rate constant), which quantifies the interaction between bevacizumab or its variants and VEGF₁₆₅. Furthermore, the equilibrium dissociation constant KD is calculated using the formula KD=kd/kₐ.

B1: bevacizumab CEX peak 1, fraction enriched in CDR-H1 glycosylated bevacizumab (antibody, human IgG1, kappa, V domains shown)
VH: EVQLVESGGGLVQPGGSLRLSCAASGYTFTNYGMNWVRQAPGKGLEWVGWINTYTGEPTYAADFKRRFTFSLDTSKSTAYLQMNSLRAEDTAVYYCAKYPHYYGSSHWYFDVWGQGTLVTVSS
VL: DIQMTQSPSSLSASVGDRVTITCSASQDISNYLNWYQQKPGKAPKVLIYFTSSLHSGVPSRFSGSGSGTDFTLTISSLQPEDFATYYCQQYSTVPWTFGQGTKVEIKR
modifications: N-linked complex-type glycan (core-fucosylated, mono- to tetra-antennary, partly sialylated) at N31 of the heavy chain, in CDR-H1
notes: Humanized IgG1; also called enriched CDR-H1 glycosylated bevacizumab obtained from CEX; Fd-glycosylated variant
B1: the Kd (usually the constant that tells how readily two partners part at equilibrium) is 0.235 nM.
